Results from publication PMC2988976.

Target: Rev_(70-Dimer) (HIV) (UniProt P04618)
Test: SEC-MALS

Rev_(70-Dimer) (from UniProt P04618 1-70) (domain or fragment)
stoichiometry N: 2
